Changes are numbered by the printed parent chain. Names may count otherwise.
B1: p4Z_9 (designed binder)
chain: MEAVRAYELQLELQQIRTLRQSLELKAKELEYAAGIITSLKSERRIYRAFSDLLVEITKLEAIEHIARSIIVYVREIAKLAKRETEIMEELSKLRAPLSLE
notes: Designed self-assembling protein; tetramer (C4) that packs into a P 4 21 2 lattice; also called design p4Z_9
B2: p3Z-42 Human Acylphosphatase fusion (designed binder)
chain: MAEGNTLISVDYEIFGKVQGVFFRKHTQAEGKKLGLVGWVQNTDRGTVQGQLQGPISKVRHMQEWLETRGSPKSHIDKANFNNEKVILKLDYSDFQIVKGSGSGSGGMHNNRLQLSRLERVYQSEQAEKLLLAGVMLRDPARFDLRGSLTHGRDVEIDTNVIIEGNVSLGNRVKIGTGCVIKNSAIGDDCEISPYTVVEDAVLAAACTIGPFARLRPGAVLLEGAHVGNFVEMKKAVLGKGSKAGHLTYLGDAAIGDNVNIGAGTITCNYDGANKFTTIIGDDVFVGSDTQLVAPVSVGKGATIAAGTTVTRNVGANALAISRVPQTQKEGWRRPVKKK
B3: p3Z_42 (designed binder)
chain: MHNNRLQLSRLERVYQSEQAEKLLLAGVMLRDPARFDLRGSLTHGRDVEIDTNVIIEGNVSLGNRVKIGTGCVIKNSAIGDDCEISPYTVVEDAVLAAACTIGPFARLRPGAVLLEGAHVGNFVEMKKAVLGKGSKAGHLTYLGDAAIGDNVNIGAGTITCNYDGANKFTTIIGDDVFVGSDTQLVAPVSVGKGATIAAGTTVTRNVGANALAISRVPQTQKEGWRRPVKKKLE
notes: Designed self-assembling protein; beta-helix trimer (C3) that packs into a P 3 2 1 lattice; Expressed from pet29b in E. coli or with a cell-free kit; also called design p3Z_42
B4: p3Z-42 Human Glutaredoxin fusion (designed binder)
chain: MGAGTAQEFVNCKIQPGKVVVFIKPTCPYCRRAQEILSQLPIKQGLLEFVDITATNHTNEIQDYLQQLTGARTVPRVFIGKDCIGGCSDLVSLQQSGELLTRLKQIGALQGSGSGGMHNNRLQLSRLERVYQSEQAEKLLLAGVMLRDPARFDLRGSLTHGRDVEIDTNVIIEGNVSLGNRVKIGTGCVIKNSAIGDDCEISPYTVVEDAVLAAACTIGPFARLRPGAVLLEGAHVGNFVEMKKAVLGKGSKAGHLTYLGDAAIGDNVNIGAGTITCNYDGANKFTTIIGDDVFVGSDTQLVAPVSVGKGATIAAGTTVTRNVGANALAISRVPQTQKEGWRRPVKKK
B5: p3Z_11 (designed binder)
chain: MEEVVLITVPSESVARIIAKALVASRLAACVNIVPGLTSIYRWQGSVVEDQELLLLVKTTTHAFPKLKHTVKIIHPYTVPEIVALPIAEGNREYLDWLRENTGLE
notes: Designed self-assembling protein; Expressed from pet29b in E. coli; also called design p3Z_11
B6: p6_9 (designed binder, not shown: small tags and cut ends)
chain: MGFQGPLGSHMTISPKEKEKIAIHEAGHDLMGLVSDDDDKVHKISIIPRGMALGVTQQLPIEDKHIYDKKDLYNKILVLLGGRAAEEVFFGKDGITTGAENDLQRATDLAYRMVSMWGMSDKVGPIAIRRVANPFLGGMTTAVDTSPDLLREIDEEVKRIITEQYEKAKAIVEEYKLPLKFVVAALLESETILCSLFAEVFKTFGIELKDKCKKEELFDKDRKSEENKELKSEEVKEEVV
notes: Alpha helical hexamer (C6), layer group P 6; Carries A29D from gene synthesis; also called Original Design p6_9 (Control); precursor to p6_9H
B7: p6_9 E188R (designed binder, not shown: small tags and cut ends)
chain: B6 chain with E188R
B8: p6_9 L193T (designed binder, not shown: small tags and cut ends)
chain: B6 chain with L193T
B9: p6_9 L193T, A198V, S189K (designed binder, not shown: small tags and cut ends)
chain: B6 chain with S189K, L193T, A198V
B10: p6_9HM (designed binder, not shown: small tags and cut ends)
chain: B6 chain with E188H, V200M
notes: p6_9H (which already carries E188H) with V200M; also called E188H, V200M (p6_9HM)
B11: p6_9 A184S (designed binder, not shown: small tags and cut ends)
chain: B6 chain with A184S
B12: p6_9 T203V (designed binder, not shown: small tags and cut ends)
chain: B6 chain with T203V
B13: p6_9 E188H, cut 6xHis (designed binder)
chain: B6 chain with E188H
notes: p6_9H with the 6xHis tag removed
B14: p6_9 E188H, L193T, A198V (designed binder, not shown: small tags and cut ends)
chain: B6 chain with E188H, L193T, A198V
notes: p6_9H (which already carries E188H) with L193T and A198V
B15: p6_9 L193T, A198V, S189K, cut 6xHis (designed binder)
chain: B6 chain with S189K, L193T, A198V
B16: p6_9H (designed binder, not shown: small tags and cut ends)
chain: B6 chain with E188H
notes: Hexamer (C6), layer group P 6; also called E188H (p6_9H)
B17: p6_9 E199L (designed binder, not shown: small tags and cut ends)
chain: B6 chain with E199L
B18: p6_9 L193T, S189K (designed binder, not shown: small tags and cut ends)
chain: B6 chain with S189K, L193T
B19: p6_9 L193T, A198V (designed binder, not shown: small tags and cut ends)
chain: B6 chain with L193T, A198V
B20: p6_9 E188H, D29A (designed binder, not shown: small tags and cut ends)
chain: B6 chain with D29A, E188H
notes: p6_9H with the gene-synthesis mutation A29D reverted
B21: p6_9 E188H, F218Y (designed binder, not shown: small tags and cut ends)
chain: B6 chain with E188H, F218Y
notes: p6_9H (which already carries E188H) with F218Y
B22: p3Z-42 Ferrodoxin fusion (designed binder)
chain: MLTVEVEVKITADDENKAEEIVKRVIDEVEREVQKQYPNATITRTLTRDDGTVELRIKVKADTEEKAKSIIKLIEERIEEELRKRDPNATITRTVRTEVGSSWSGSGSGGMHNNRLQLSRLERVYQSEQAEKLLLAGVMLRDPARFDLRGSLTHGRDVEIDTNVIIEGNVSLGNRVKIGTGCVIKNSAIGDDCEISPYTVVEDAVLAAACTIGPFARLRPGAVLLEGAHVGNFVEMKKAVLGKGSKAGHLTYLGDAAIGDNVNIGAGTITCNYDGANKFTTIIGDDVFVGSDTQLVAPVSVGKGATIAAGTTVTRNVGANALAISRVPQTQKEGWRRPVKKK
B23: p6_9H_KDKCKXX (designed binder)
chain: MGFQGPLGSHMTISPKEKEKIAIHEAGHDLMGLVSDDDDKVHKISIIPRGMALGVTQQLPIEDKHIYDKKDLYNKILVLLGGRAAEEVFFGKDGITTGAENDLQRATDLAYRMVSMWGMSDKVGPIAIRRVANPFLGGMTTAVDTSPDLLREIDEEVKRIITEQYEKAKAIVEEYKLPLKFVVAALLHSETILCSLFAEVFKTFGIELKDKCK
notes: p6_9H with 33 C-terminal residues (including 6xHis) removed
B24: p3Z-42 TDRD2 fusion (designed binder)
chain: MGSRSLQLDKLVNEMTQHYENSVPEDLTVHVGDIVAAPLPTNGSWYRARVLGTLENGNLDLYFVDFGDNGDCPLKDLRALRSDFLSLPFQAIECSGSGSGGMHNNRLQLSRLERVYQSEQAEKLLLAGVMLRDPARFDLRGSLTHGRDVEIDTNVIIEGNVSLGNRVKIGTGCVIKNSAIGDDCEISPYTVVEDAVLAAACTIGPFARLRPGAVLLEGAHVGNFVEMKKAVLGKGSKAGHLTYLGDAAIGDNVNIGAGTITCNYDGANKFTTIIGDDVFVGSDTQLVAPVSVGKGATIAAGTTVTRNVGANALAISRVPQTQKEGWRRPVKKK

Experiments:
[1] = biological target: the molecule itself; assay: self-assembly of tetramers; negative-stain EM of E. coli pellet
[2] = biological target: the molecule itself; assay: self-assembly of fusion trimers; negative-stain EM of E. coli pellet
Method: (§1) Synthetic genes of each fusion were obtained and protein was expressed in Escherichia coli cells using a standard T7 based expression vector (Table 2). The protein expression was verified by sodium dodecyl sulfate polyacrylamide gel electrophoresis (SDS-PAGE) after separation of the soluble and insoluble cell portions. Samples of observed protein in the cellular pellets were analyzed for array formation by negative-stain Transmission Electron Microscopy (TEM). […] It is worth noting that 5/7 of the remaining fusions either shared a similar sequence and unknown but potentially similar structures (2 unpublished binding proteins) or were either the same molecular weight or much larger than the p3Z-42 monomer protein (3 proteins between ˜25-35 kDa).
On the basis of these initial hits, the general properties of the proteins that crystallized, specifically molecular weight, were evaluated. 16 further fusions were identified based either on smaller molecular weight sizes (13 proteins between 9 and 13 kDa) or other important targets close to this molecular weight range (3 proteins between 14 and 17 kDa). These second screen fusions were genetically fused and checked for array formation as before. […]

[3] = biological target: the molecule itself; assay: self-assembly of trimers; cell-free expression, negative-stain EM
Method: (A) Design p3Z_42 expressed using an in vitro expression kit. This negative-stain micrograph was made 4 hours after adding pure plasmid DNA of p3Z_42 to the kit components without purification. A Fourier transform is shown from a crystal in the micrograph showing the same P 3 2 1 lattice as visualized in p3Z_42 E. coli expression. (B) Fast dilution re-folded p4Z_9 protein. Large arrays form analogous to those seen from E. coli expressed protein. A Fourier transform is shown highlighting the square lattice. (C) Dialysis re-folded p4Z_9 protein. Large fibrous structures form with the same square array pattern as in E. coli expressed proteins. Fourier transform is shown highlighting the square repeat pattern. (D) Purified and concentrated protein from p6_9H soluble fractions. Arrays were not visualized at this point. […] (E) p6_9H array formation from material as in (d). These arrays formed after further concentration of protein as in (d) and heat application in a water bath. […] Fourier transform is shown with the same P 6 arrangement seen in the pellet sample. Scale bars=50 nm.

[4] = biological target: the molecule itself; assay: self-assembly of trimers; negative-stain EM of E. coli pellet
[5] = biological target: the molecule itself; assay: sizes of crystals observed in the pellet; negative-stain EM (self-assembly)
[6] = biological target: the molecule itself; assay: self-assembly of fusion trimers; negative-stain TEM of E. coli pellet
Method: as §1

[7] = biological target: the molecule itself; assay: self-assembly of fusion trimers; negative-stain EM

Protein	binding result [5]	also measured
B1	–	binding result [1]: binds
B2	–	binding result [2]: binds
B3	–	binding result [3]: binds
B4	–	binding result [2]: binds
B5	–	binding result [4]: binds
B6	binds	–
B7	binds	–
B8	binds	–
B9	binds	–
B10	binds	–
B11	binds	–
B12	binds	–
B13	binds	–
B14	binds	–
B15	binds	–
B16	binds	–
B17	binds	–
B18	binds	–
B19	binds	–
B20	binds	–
B21	binds	–
B22	–	binding result [6]: binds
B23	binds	–
B24	–	binding result [7]: binds

— patent publication US20160369264A1 (HOWARD HUGHES MEDICAL INSTITUTE, published 2016)
